Results reported in paper PMC10827105.

How the values were obtained:
[1] = target: CifRTR (CifR C99T/C181R) (Pseudomonas aeruginosa); experiment: SEC
[2] = target: CifRTR (CifR C99T/C181R) (Pseudomonas aeruginosa); experiment: SEC + AUC
[3] = target: CifRTR-C107S (Pseudomonas aeruginosa, UniProt A0A0H2ZCS5 1-196, C99T;C107S;C181R); experiment: X-ray crystallography
[4] = target: T1, CifRTR (Pseudomonas aeruginosa, UniProt A0A0H2ZCS5 1-196, C99T;C181R); experiment: SEC
[5] = target: T1, CifRTR; experiment: EMSA
[6] = target: T1, CifRTR; experiment: EMSA; remark: listed apart in the source

“CifRTR (CifR C99T/C181R) (natural protein)” showed a stoichiometry N [1] of 2 and a stoichiometry N [2] of 2.

B1: cifR-prox dsDNA26L (dsDNA)
DNA 1: TTATTTGTATCGATCACTATAAATTT
DNA 2: AAATTTATAGTGATCGATACAAATAA
B1: binds [3]; binds [4].

B2: cifR-prox dsDNA23 (dsDNA)
DNA 1: TATTTGTATCGATCACTATAAAT
DNA 2: ATTTATAGTGATCGATACAAATA
B2: binds [5].

B3: cifR-prox dsDNA36 (dsDNA)
DNA 1: CCTCCATTATTTGTATCGATCACTATAAATTTACTT
DNA 2: AAGTAAATTTATAGTGATCGATACAAATAATGGAGG
B3: binds [6].
